Assay results from patent US20200338203A1 (Bicycle, published 2020).
Numbered stars: 1 amine (or outer) side, 2 acyl side, 3 side chain; on linkers, the order of the positions; unused ones are H or OH. Bridge positions count the residues as written; N and C are the ends. Square brackets hold non-standard residues; d marks the D form. Ends that are not written are not given here. ThiAz = 3-(1,2,4-triazol-1-yl)-alanine, O=C([C@H](Cn1cncn1)N[*:1])[*:2]; Ala(2-furyl) = N[C@@H](Cc1ccco1)C(=O)O; 1Nal = N[C@@H](Cc1cccc2ccccc12)C(=O)O; TBMB = c1c(C[*:1])cc(C[*:3])cc1C[*:2]; hArg = N=C(N)NCCCC[C@H](N)C(=O)O; Tle = CC(C)(C)[C@H](N)C(=O)O; Pip = O=C(O)[C@@H]1CCCCN1; Aze = O=C(O)[C@@H]1CCN1; Aib = CC(C)(N)C(=O)O; azaGly = NNC(=O)O; βAla = NCCC(=O)O; Sar = CNCC(=O)O

B1: Compound 219 (peptide)
peptide: [Sar][Sar]AHDV[dA]CPWGPFWCPVNRPGC
modifications: linker 8-15-22 via TBMB
B2: Compound 230 (peptide)
peptide: Ac-[Sar][Sar]A[dH]DVPCP[1Nal]GPFWCP[Tle]N[hArg]PGC
modifications: linker 8-15-22 via TBMB
B3: Compound 208 (peptide)
peptide: [Sar][Sar]AH[dE]VPCPWGPFWCPVNRPGC
modifications: linker 8-15-22 via TBMB
B4: Compound 202 (peptide)
peptide: [Sar][Sar]A[ThiAz]DVPCPWGPFWCPVNRPGC
modifications: linker 8-15-22 via TBMB
B5: Compound 203 (peptide)
peptide: [Sar][Sar]A[Ala(2-furyl)]DVPCPWGPFWCPVNRPGC
modifications: linker 8-15-22 via TBMB
B6: Compound 271 (peptide)
peptide: [βAla][Sar][Sar][Sar][Sar][Sar][Sar][Sar][Sar][Sar][Sar]H[dD]VPCPWG[Aib]FWCP[Tle]N[hArg]P[dD]C
modifications: linker 16-23-30 via TBMB
B7: Compound 209 (peptide)
peptide: [Sar][Sar]AH[dD]VPCPWGPFWCPVNRPGC
modifications: linker 8-15-22 via TBMB
B8: Compound 216 (peptide)
peptide: [Sar][Sar]AHD[Aib]PCPWGPFWCPVNRPGC
modifications: linker 8-15-22 via TBMB
B9: Compound 220 (peptide)
peptide: [Sar][Sar]AHDV[Aib]CPWGPFWCPVNRPGC
modifications: linker 8-15-22 via TBMB
B10: Compound 266 (peptide)
peptide: Ac-[Sar][Sar]H[dD]VPCP[1Nal]G[Aib]FWCPVNR[Aib]GC
modifications: linker 7-14-21 via TBMB
B11: Compound 283 (peptide)
peptide: Ac-[Sar][Sar]A[dD]DVTCP[1Nal]GPF[1Nal]CPVNRPGC
modifications: linker 8-15-22 via TBMB
B12: Compound 268 (peptide)
peptide: Ac-[Sar][Sar]H[dD]VPCPWG[Aib]F[1Nal]CPVNR[Aib]GC
modifications: linker 7-14-21 via TBMB
B13: Compound 198 (peptide)
peptide: Ac-[Sar][Sar]A[dH]DVCPWGPFWCPVNRPGC
modifications: linker 7-14-21 via TBMB
B14: Compound 270 (peptide)
peptide: Ac-[Sar][Sar]H[dD]VPCPWG[Aib]FWCP[Tle]NR[Aib]GC
modifications: linker 7-14-21 via TBMB
B15: Compound 233 (peptide)
peptide: Ac-[Sar][Sar]A[dH]DVPCPWG[Aib]FWCP[Tle]NR[Aib]GC
modifications: linker 8-15-22 via TBMB
B16: Compound 222 (peptide)
peptide: [Sar][Sar]AHDV[Pip]CPWGPFWCPVNRPGC
modifications: linker 8-15-22 via TBMB
B17: Compound 267 (peptide)
peptide: Ac-[Sar][Sar]H[dD]VPCPW[azaGly]PFWCPVNRPGC
modifications: linker 7-14-21 via TBMB
B18: Compound 210 (peptide)
peptide: Ac-[Sar][Sar]AH[dD]VPCPWGPFWCPVNRPGC
modifications: linker 8-15-22 via TBMB
B19: Compound 223 (peptide)
peptide: [βAla][Sar][Sar][Sar][Sar][Sar][Sar][Sar][Sar][Sar][Sar]HDVPCPWGPFWCPVNRPGC
modifications: linker 16-23-30 via TBMB
B20: Compound 229 (peptide)
peptide: Ac-[Sar][Sar]A[dH]DVPCPWGPFWCP[hArg]NRPGC
modifications: linker 8-15-22 via TBMB
B21: Compound 200 (peptide)
peptide: Ac-[Sar][Sar]A[dD]DVPCPWGPFWCPVNRPGC
modifications: linker 8-15-22 via TBMB
B22: Compound 272 (peptide)
peptide: [βAla][Sar][Sar][Sar][Sar][Sar][Sar][Sar][Sar][Sar][Sar]H[dD]VPCPWGP[hArg]WCP[Tle]N[hArg]P[dD]C
modifications: linker 16-23-30 via TBMB
B23: Compound 197 (peptide)
peptide: [Sar][Sar]A[dH]DVPCPWGPFWCPVNRPGC
modifications: linker 8-15-22 via TBMB
B24: Compound 204 (peptide)
peptide: Ac-[Sar][Sar]A[dH]D[Tle]PCPWGPFWCPVNRPGC
modifications: linker 8-15-22 via TBMB
B25: Compound 226 (peptide)
peptide: [βAla][Sar][Sar][Sar][Sar][Sar][Sar][Sar][Sar][Sar][Sar]H[dD]VPCPWGPFWCPVNRPGC
modifications: linker 16-23-30 via TBMB
B26: Compound 213 (peptide)
peptide: Ac-[Sar][Sar]AH[dD]V[Aib]CPWGPFWCPVNRPGC
modifications: linker 8-15-22 via TBMB
B27: Compound 195 (peptide)
peptide: Ac-[Sar][Sar]AADVPCPWGPFWCPVNRPGC
modifications: linker 8-15-22 via TBMB
B28: Compound 218 (peptide)
peptide: [Sar][Sar]AHDVACPWGPFWCPVNRPGC
modifications: linker 8-15-22 via TBMB
B29: Compound 207 (peptide)
peptide: [Sar][Sar]AHEVPCPWGPFWCPVNRPGC
modifications: linker 8-15-22 via TBMB
B30: Compound 214 (peptide)
peptide: [Sar][Sar]AHDAPCPWGPFWCPVNRPGC
modifications: linker 8-15-22 via TBMB
B31: Compound 205 (peptide)
peptide: [Sar][Sar]AHAVPCPWGPFWCPVNRPGC
modifications: linker 8-15-22 via TBMB
B32: Compound 217 (peptide)
peptide: [Sar][Sar]AHD[Tle]PCPWGPFWCPVNRPGC
modifications: linker 8-15-22 via TBMB
B33: Compound 227 (peptide)
peptide: Ac-[Sar][Sar]AH[dD]VPCP[1Nal]GPFWCP[Tle]N[hArg]PGC
modifications: linker 8-15-22 via TBMB
B34: Compound 215 (peptide)
peptide: [Sar][Sar]AHD[dA]PCPWGPFWCPVNRPGC
modifications: linker 8-15-22 via TBMB
B35: Compound 212 (peptide)
peptide: Ac-[Sar][Sar]AH[dD]V[Sar]CPWGPFWCPVNRPGC
modifications: linker 8-15-22 via TBMB
B36: Compound 194 (peptide)
peptide: Ac-[Sar][Sar][dA]HDVPCPWGPFWCPVNRPGC
modifications: linker 8-15-22 via TBMB
B37: Compound 261 (peptide)
peptide: Ac-[Sar][Sar]H[dD]VPCP[1Nal]G[Aib]F[1Nal]CPVNR[Aib]GC
modifications: linker 7-14-21 via TBMB
B38: Compound 211 (peptide)
peptide: Ac-[Sar][Sar]AH[dD][Tle]PCPWGPFWCPVNRPGC
modifications: linker 8-15-22 via TBMB
B39: Compound 199 (peptide)
peptide: [Sar][Sar]A[dA]DVPCPWGPFWCPVNRPGC
modifications: linker 8-15-22 via TBMB
B40: Compound 206 (peptide)
peptide: [Sar][Sar]AH[dA]VPCPWGPFWCPVNRPGC
modifications: linker 8-15-22 via TBMB
B41: Compound 224 (peptide)
peptide: Ac-[Sar][Sar][dH]DVPCPWGPFWCPVNRPGC
modifications: linker 7-14-21 via TBMB
B42: Compound 221 (peptide)
peptide: [Sar][Sar]AHDV[Aze]CPWGPFWCPVNRPGC
modifications: linker 8-15-22 via TBMB
B43: Compound 252 (peptide)
peptide: [βAla][Sar][Sar][Sar][Sar][Sar][Sar][Sar][Sar][Sar][Sar]H[dD]VPCP[1Nal]G[Aib]F[1Nal]CP[Tle]NRPGC
modifications: linker 16-23-30 via TBMB
B44: Compound 196 (peptide)
peptide: Ac-[Sar][Sar]A[dH]DVPCPWGPFWCPVNRPGC
modifications: linker 8-15-22 via TBMB
B45: Compound 281 (peptide)
peptide: Ac-[Sar][Sar]A[dD]DVTCPWGPFWCPVNRPGC
modifications: linker 8-15-22 via TBMB
B46: Compound 282 (peptide)
peptide: Ac-[Sar][Sar]A[dD]DVTCP[1Nal]GPFWCPVNRPGC
modifications: linker 8-15-22 via TBMB

molecular target: T1, Human EphA2 (Ecto) (Human, UniProt P29317 24-537); test: FP competition; competitor Compound 18
T1 construct: extracellular domain
T1 sequence (P29317 24-537): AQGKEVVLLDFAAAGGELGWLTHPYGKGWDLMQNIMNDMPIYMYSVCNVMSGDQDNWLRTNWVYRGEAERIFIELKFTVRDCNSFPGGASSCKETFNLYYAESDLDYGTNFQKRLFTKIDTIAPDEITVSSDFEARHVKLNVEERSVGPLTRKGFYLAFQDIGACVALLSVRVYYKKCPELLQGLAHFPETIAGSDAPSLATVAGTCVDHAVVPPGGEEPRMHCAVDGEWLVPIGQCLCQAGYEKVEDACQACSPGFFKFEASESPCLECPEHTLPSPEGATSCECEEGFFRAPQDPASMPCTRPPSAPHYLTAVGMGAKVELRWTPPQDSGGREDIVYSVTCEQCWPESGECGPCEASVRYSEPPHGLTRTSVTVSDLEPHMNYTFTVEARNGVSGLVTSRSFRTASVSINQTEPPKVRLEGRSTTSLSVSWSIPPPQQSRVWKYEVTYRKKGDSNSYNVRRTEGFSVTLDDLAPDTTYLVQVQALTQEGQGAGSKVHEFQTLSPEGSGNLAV
Method: Peptides without a fluorescent tag were tested in competition with a peptide with a fluorescent tag and a known Kd (Table 2). Peptides were diluted to an appropriate concentration in assay buffer as described in the direct binding assay with a maximum of 5% DMSO, then serially diluted 1 in 2. Five μL of diluted peptide was added to the plate followed by 10 μL of human or mouse EphA2 (Table 1) at a fixed concentration which was dependent on the fluorescent peptide used (Table 2), then 10 μL fluorescent peptide added. Measurements were conducted as for the direct binding assay, however the gain was determined prior to the first measurement.

Binder	Ki
B1	15 nM
B2	1.8 nM
B3	2 nM
B4	0.7 nM
B5	0.49 nM
B6	3.66 nM
B7	1.25 nM
B8	2.77 nM
B9	0.83 nM
B10	1.6 nM
B11	0.28 nM
B12	1.24 nM
B13	20 nM
B14	1.52 nM
B15	4.8 nM
B16	3.4 nM
B17	0.66 nM
B18	1.1 nM
B19	1.29 nM
B20	5.1 nM
B21	4.1 nM
B22	3.99 nM
B23	1.2 nM

Binder	Ki
B24	2.15 nM
B25	0.84 nM
B26	1.9 nM
B27	1.01 nM
B28	1.27 nM
B29	1.3 nM
B30	22.5 nM
B31	1.8 nM
B32	0.49 nM
B33	0.75 nM
B34	26 nM
B35	4.95 nM
B36	1.2 nM
B37	0.63 nM
B38	3.1 nM
B39	3.35 nM
B40	8.3 nM
B41	1.09 nM
B42	3.1 nM
B43	0.37 nM
B44	0.95 nM
B45	5.78 nM
B46	0.87 nM
